The values that follow come from patent US20120087916A1, “ANTI-ICAM-1 ANTIBODY, USES AND METHODS” (priority 2009, published 2012).

Data set [1] concerns NCI-H929, EJM, RPMI-8226 myeloma cells. Description: SCID xenografts of CD20-negative ICAM-1-positive myeloma cell lines. The class given is in vivo, SCID mice. Conditions: CD20-negative ICAM-1-positive lines, 2 mg/kg twice-weekly intraperitoneal from Day 1. The method, then:
(§1) Antibody treatment with 2 mg/kg BI-AB or control IgG1 was started at Day 1 and was continued on a twice-weekly intraperitoneal dosing regimen. Mice were sacrificed when tumour sizes reached the ethical limit. […] Statistical significance was calculated relative to control antibody treatment using Student t test. Statistical significance was considered for *p<0.05, **p <0.01, and ***p<0.001. ICAM-1-intercellular adhesion molecule 1; SCID=severe combined immunodeficiency

Another data set addresses ICAM-1 (Homo sapiens, UniProt P05362). The data set can be described thus: Binding of BI-AB to ICAM-1. An excerpt: BI-AB is a fully human immunoglobulin G subtype 1 (IgG1) monoclonal antibody expressed in Chinese Hamster Ovarian (CHO) cells. The BI-AB antibody has a theoretical molecular weight of approximately 144 kDa based on the predicted amino acid sequence. Mass spectrometry, peptide mapping and SDS-PAGE will determine molecular mass and primary and secondary structures. The biological activity is quantified using an ELISA assay, which quantitatively measures the binding of the BI-AB to ICAM-1.

Data set [2] can be described thus: Pharmacokinetics in the cynomolgus monkey, escalation dose toxicity study. It is filed as in vivo, cynomolgus monkeys. As to conditions: 1-100 mg/kg. An excerpt: • Table 1: BI-AB levels associated 10, 50, and 90% anti-tumour activity correlated with levels of receptor binding. • a—determined in the most sensitive setting in the ARH-77/SCID in vivo tumour model, i.e., early antibody administration. • b—determined in the advanced ARH-77/SCID in vivo tumour model (mice carrying established tumours) • Table 2: Single dose pharmacokinetics of BI-AB following single IV bolus injection • Table 3: Pharmacokinetics of BI-AB following single escalating IV bolus injection The pharmacokinetics of BI-AB was investigated at dose levels of 1, 2, 8, 20, 50, and 100 mg/kg in the escalation dose toxicity study in cynomolgus monkeys. Samples for plasma analysis were taken after all dose levels. […] Cmax were generally obtained at the first sampling time of 0.5 hours post-dose. However at 100 mg/kg the Cmax was reached 8 hours post-dose. Serum concentrations declined in a generally bi-phasic manner with an elimination time ranging from 69 to 264 hours. […] There was some carry-over of the compound between treatments due to the long half-life of BI-AB.
The pharmacokinetics of BI-AB was investigated at dose levels of 1, 2, 8, 20, 50, and 100 mg/kg in the escalation dose toxicity study in cynomolgus monkeys. Samples for plasma analysis were taken after all dose levels.
Cmax were generally obtained at the first sampling time of 0.5 hours post-dose. However at 100 mg/kg the Cmax was reached 8 hours post-dose. Serum concentrations declined in a generally bi-phasic manner with an elimination time ranging from 69 to 264 hours. […] There was some carry-over of the compound between treatments due to the long half-life of BI-AB.

The subject of the next data set is OPM-2 myeloma cells. The data set can be described thus: SCID xenograft of ICAM-1-negative myeloma cell line. Conditions: ICAM-1-negative OPM-2; 2 mg/kg twice-weekly intraperitoneal from Day 1. The class given is in vivo, SCID mice. The method, then: as §1
The subject of a further data set is B-cell lymphoma. The data set can be described thus: SCID/B-cell lymphoma tumour xenograft models. Conditions: prophylactic and established models; data not shown. It is filed as in vivo, SCID mice.
In data set [3] the target is T1, ICAM-1 epitopes on ARH-77 myeloma cells (Homo sapiens, UniProt P05362).
T1 construct: endogenous in cells; host or cells: ARH-77 myeloma cells
T1 sequence (P05362 28-532): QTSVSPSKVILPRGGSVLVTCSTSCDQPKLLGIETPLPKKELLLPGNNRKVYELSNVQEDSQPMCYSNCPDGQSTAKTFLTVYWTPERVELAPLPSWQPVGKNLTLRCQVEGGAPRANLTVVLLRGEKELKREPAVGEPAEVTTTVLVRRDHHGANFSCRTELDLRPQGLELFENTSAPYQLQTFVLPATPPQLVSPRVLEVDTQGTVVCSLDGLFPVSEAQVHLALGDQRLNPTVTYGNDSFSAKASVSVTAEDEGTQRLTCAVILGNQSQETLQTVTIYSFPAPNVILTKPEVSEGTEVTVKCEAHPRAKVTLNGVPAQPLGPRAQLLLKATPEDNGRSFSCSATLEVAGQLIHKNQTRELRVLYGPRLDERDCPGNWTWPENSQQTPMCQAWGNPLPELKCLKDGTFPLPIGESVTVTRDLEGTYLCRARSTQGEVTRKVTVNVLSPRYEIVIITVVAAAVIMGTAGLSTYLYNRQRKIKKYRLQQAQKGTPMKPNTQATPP
Description: Receptor occupancy / binding in vitro using human tumour cells. The method, then: (§2) FIG. 5: Calculation of MABEL: determination of BI-AB IC10 value using in vivo pharmacology assay and in vitro correlation with binding. • (A) Tumour cells were injected subcutaneously into the left flank of SCID mice (n=8 per group). Mice received twice-weekly intraperitoneal injections with BI-AB at a range of 20 to 0.002 mg/kg (until control group had to be sacrificed). […] IC10=concentration at which there is 10% inhibition; ELISA=enzyme-linked immunosorbent assay; MABEL=minimum anticipated biological effect level. • (D) ARH-77myeloma cells were injected subcutaneously into the left flank of SCID mice (n=8 per group). Mice received twice-weekly intravenous injections of BI-AB at 0.002-20 mg/kg until control group had to be sacrificed. Blood samples were collected at termination and analyzed by ELISA to determine BI-AB serum trough levels. Trough BI-AB serum concentrations were plotted as a function of anti-tumor activity and fitted using five parameter log-log curve and XLfit software (IDBS, Guildford, United Kingdom).
Receptor occupancy has been examined in vitro using human tumour cells and the BI-AB level corresponding to binding saturation has been identified. It is assumed that at this concentration, ICAM-1 epitopes on cells of the vascular compartment should be saturated, and any side effects related to the physiological function of ICAM-1 are expected to be […]. […]

A short description of data set [4]: BI-AB serum trough levels by ELISA in the ARH-77/SCID tumour model. It is filed as in vivo, SCID mice. As to conditions: corresponds to 0.004 mg/kg dose; from fitted five parameter log-log curve. The method, then:
as §2
Mean BI-AB serum trough concentrations of different mouse dose groups were determined by ELISA analysis of blood samples collected at different time-points during the course of in vivo experimentation. […]
A general note: In an ELISA, binding on a coated surface is turned into a signal by an enzyme label.

The subject of data set [5] is human multiple myeloma tumour cells. The data set can be described thus: Disseminated tumour model (advanced experimental multiple myeloma), intravenous tumour cell inoculation. The class given is in vivo, SCID mice. The method, then: SCID mice were irradiated 5 days before intravenous tumour cell inoculation. Animals received intravenous injections with antibody at 2 mg/kg or bortezomib (Velcade) at 0.5 mg/kg on Days 7, 10, 14, and 17 (as indicated by arrows in graph). There were 8 mice per treatment group. Statistical significance was calculated using Log-rank Graphpad Prism software. Significance was determined at *p<0.05, **p<0.01, and ***p<0.001.
BI-AB anti-myeloma activity has additionally been investigated in a disseminated tumour model (a well-established experimental model of human multiple myeloma) at an independent contract research organization. […] After 190 days, when the experiment was terminated, 25% of BI-AB-treated mice were still alive.

Data set [6] can be described thus: Pharmacokinetics in the rat, single IV bolus injection. The class given is in vivo. An excerpt: A pharmacokinetic (PK) study of BI-AB in the rat has been performed. In this study, the doses of the antibody tested were in such excess in relation to the target antigen concentration that any binding to the target antigen would not be of significant importance for the PK profile. This fact serves as the rationale for performing a PK study in a species where the antibody will not bind to the target antigen. The pharmacokinetics of BI-AB in the rat has been investigated following a single IV bolus injection at dose levels of 0.5, 2.5 and 10 mg/kg.

A further data set has as its system ARH-77 myeloma cells. The data set can be described thus: SCID/ARH-77 myeloma xenograft model (early and established subcutaneous tumours). It is filed as in vivo, SCID mice. The method, then: There were 8 to 10 animals per treatment group. • A and B: Early tumour model; treatment started 1 day after myeloma cell inoculation and continued until tumour volumes reached the ethical limit. (A) Tumour volume as a function of antibody dose. (B) Kaplan-Meier survival graph as a function of antibody dose. • (C) Established xenograft model; treatment with antibodies started when tumours reached a volume of approximately 100 mm^3. […] Statistical significance was calculated relative to control antibody treatment using Student t test (tumour volume) or the log-rank test (mouse survival) using Graphpad Prism software. Statistical significance was considered for *p<0.05, **p<0.01, and ***p<0.001. Graphs illustrate representative experiments out of several performed.
Blood samples were collected at termination and analyzed by ELISA to determine BI-AB serum trough levels. Trough BI-AB serum concentrations were plotted as a function of anti-tumor activity and fitted using five parameter log-log curve and XLfit software (IDBS, Guildford, United Kingdom).

[7] abbreviates: single IV bolus 0.5, 2.5 and 10 mg/kg.

“Also recorded” adds a separate entry of the source.

Chain of ICAM-1 (P05362 28-532): as above

B1: BI-AB: fully human, high-affinity IgG1 mAb specific for ICAM-1 generated from the n-CoDeR human antibody fragment library (antibody, V domains shown)
VH: EVQLLESGGGLVQPGGSLRLSCAASGFTFSNAWMSWVRQAPGKGLEWVAFIWYDGSNKYYADSVKGRFTISRDNSKNTLYLQMNSLRAEDTAVYYCARYSGWYFDYWGQGTLVTVSS
VL: QSVLTQPPSASGTPGQRVTISCTGSSSNIGAGYDVHWYQQLPGTAPKLLIYDNNNRPSGVPDRFSGSKSGTSASLAISGLRSEDEADYYCQSYDSSLSAWLFGGGTKLTVLG
As to B1, the “anti-myeloma activity (tumour growth)” value in [1] is “significant and ICAM-1-dependent anti-myeloma activity”. Besides, the “affinity and specificity of binding to ICAM-1” value with ICAM-1 was “binds with high affinity and specificity to ICAM-1”. Besides, in data set [2], the “systemic exposure versus dose” value is “increased roughly in proportion to the dose”, the “systemic exposure versus gender” value is recorded as “without gender deviations” and the “volumes of distribution versus dose” value is listed as “no dose-dependency”. Besides, the “effect on tumour growth” value in the data set with OPM-2 myeloma cells is recorded as “no effect on tumour growth; also recorded: did not affect tumour growth”. For the same molecule, the anti-lymphoma activity entry in the data set with B-cell lymphoma is “significant anti-lymphoma activity”. Moreover, the “ARH-77 ICAM-1 epitopes occupied by antibody in vitro” value in data set [3] (at 28 ng/mL BI-AB) is listed as “approximately 30%”. The “binding to ARH-77 myeloma cells” value in data set [3] (in vitro) was “binds to ARH-77 myeloma cells in a dose-dependent manner”. In data set [4], the “steady state trough serum concentration at IC10 inhibition of tumour growth” value amounted to 0.028 mg/L. For the same molecule, the “survival compared with control-treated mice” value in data set [5] (2 mg/kg intravenous Days 7, 10, 14, 17 (or start 1 day) after tumour cell inoculation) is “confers protection against advanced experimental multiple myeloma; also recorded: significantly prolonged survival”. In addition, in [5] (BI-AB 2 mg/kg vs bortezomib (Velcade) 0.5 mg/kg), the “benchmark against Bortezomib” value is “superior”. Besides, in data set [5] (after 190 days, when the experiment was terminated), the “treated mice still alive” value worked out at 25%. In addition, the “systemic exposure versus sex” value in data set [6] (single IV bolus) is “generally independent of sex”. Besides, in data set [6] (setting [7]), the “clearance and volumes of distribution (Vz and Vss) versus dose” value is on record as “dose independent”; the “systemic exposure versus dose” value is given as “increased roughly in proportion to dose”; the “time of maximum serum concentrations” value is on record as “within the first hour”. The “efficacy and potency compared with Rituximab (reducing tumour growth, prolonging survival)” value in the data set on ARH-77 myeloma cells (SCID/ARH-77, prophylactic and established xenograft models, Rituximab e.g. 20 mg/kg) is “more efficacious and potent compared with Rituximab; also recorded: comparable or improved activity”. Also, the “in vivo anti-myeloma efficacy (tumour volume, survival)” value in the data set with ARH-77 myeloma cells (SCID/ARH-77 xenograft, twice-weekly intraperitoneal, doses 0.016, 0.16, 1.6 (16) mg/kg) is “significant in vivo anti-myeloma efficacy and potency”. Moreover, in the data set on ARH-77 myeloma cells (early antibody administration, twice-weekly dosing regimen), the “MABEL/IC10 dose (10% inhibition of tumour growth)” value is 4 µg/kg.
